In PMC2173478:

Molecular target: cytochrome c
Assay: SEC

stoichiometry N: 2
Substance: cytochrome c (natural protein)
